# Experimental data: the RNAGym collection of RNA variant scans (doi:10.7554/elife.90254)
# B1: OR4K15 (parent)
# chain: GUUAACGGUCAUAGGCCAUGGAAACUAGGAGCACCAUUUCGCUGCCAGUGAAGAAAUGAACAAAGAAAAUCUGGGCCAGGCAGGCAUCAAAAGAAAUAGUCUUGCGCUCAACCAGAAAGUCUGUAAUCAUUUUAAGGGUA
# Variants of: B1
# Test: self-cleavage, relative activity (ratio to wild type); higher = more cleavage; in vitro, sequencing; the parent is a self-cleaving ribozyme
row,Variant,self-cleavage
1,GUUAACGGUCAUAGGCCAUGGACACUAGGAGCACCAUUUCGCUGCCAGUGAAGAAAUGAACAAAGAAAAUCUGGGCCAGGCAGGCAUCAAAAGAGAUAGUCUUGCGCUCAACCAGAAAGUCUGUAAUCAUUUUAAGGGUA,1.67
2,GUUAACGGUCAUAGGCCAUGGAGACUAGGAGCACCAUUUCGCUGCCAGUGAAGAAAUGAACAAAGAAAUUCUGGGCCAGGCAGGCAUCAAAAGAAAUAGUCUUGCGCUCAACCAGAAAGUCUGUAAUCAUUUUAAGGGUA,1.12
3,GUUAACGGUCAUAGGCCAUGGAGACUAGGAGCACCAUUUCGCUGCCAGUGAAGAUAUGAACAAAGAAAAUCUGGGCCAGGCAGGCAUCAAAAGAAAUAGUCUUGCGCUCAACCAGAAAGUCUGUAAUCAUUUUAAGGGUA,0.86
4,GUUAACGGUCAUAGGCCAUGGAGACUAGGAGCACCAUUUCGCUGCCAGUGAAGACAUGAACAAAGAAAAUCUGGGCCAGGCAGGCAUCAAAAGAAAUAGUCUUGCGCUCAACCAGAAAGUCUGUAAUCAUUUUAAGGGUA,1.33
5,GUUAACGGUCAUAGGCCAUGGUAACUAGGAGCACCAUUUCGCUGCCAGUGAAGAAAUGAACAAAGAAAAUCUGGGCCAGGCAGGCAUCAAAAGAAAUAGUCUUGCGCUCAACCAGAAAGUCUGUAAUCACUUUAAGGGUA,0.32
6,GUUAACGGUCAUAGGCCAUGGAGACUAGGAGCGCCAUUUCGCUGCCAGUGAAGAAAUGAACAAAGAAAAUCUGGGCCAGGCAGGCAUCAAAAGAAAUAGUCUUGCGCUCAACCAGAAAGUCUGUAAUCAUUUUAAGGGUA,0.84
7,GUUAACGGUCAUAGGCCAUGGAGACUAGGAGCCCCAUUUCGCUGCCAGUGAAGAAAUGAACAAAGAAAAUCUGGGCCAGGCAGGCAUCAAAAGAAAUAGUCUUGCGCUCAACCAGAAAGUCUGUAAUCAUUUUAAGGGUA,1.52
8,GUUAACGGUCAUAGGCCAUGGAGACUAGGAGCUCCAUUUCGCUGCCAGUGAAGAAAUGAACAAAGAAAAUCUGGGCCAGGCAGGCAUCAAAAGAAAUAGUCUUGCGCUCAACCAGAAAGUCUGUAAUCAUUUUAAGGGUA,1.9
9,GUUAACGGUCAUAGGCCAUGGACACUAGGAGCACCAUCUCGCUGCCAGUGAAGAAAUGAACAAAGAAAAUCUGGGCCAGGCAGGCAUCAAAAGAAAUAGUCUUGCGCUCAACCAGAAAGUCUGUAAUCAUUUUAAGGGUA,1.73
10,GUUAACGGUCAUAGGCCAUGGACACUAGGAGCACCAUUUCGCCGCCAGUGAAGAAAUGAACAAAGAAAAUCUGGGCCAGGCAGGCAUCAAAAGAAAUAGUCUUGCGCUCAACCAGAAAGUCUGUAAUCAUUUUAAGGGUA,1.86
11,GUUAACGGUCAUAGGCCAUGGAGACUAGGAGCACCAUUUCGCUGCCAGUGAAGAAAUGUACAAAGAAAAUCUGGGCCAGGCAGGCAUCAAAAGAAAUAGUCUUGCGCUCAACCAGAAAGUCUGUAAUCAUUUUAAGGGUA,1
12,GUUAACGGUCAUAGGCCAUGGAGACUGGGAGCACCAUUUCGCUGCCAGUGAAGAAAUGAACAAAGAAAAUCUGGGCCAGGCAGGCAUCAAAAGAAAUAGUCUUGCGCUCAACCAGAAAGUCUGUAAUCAUUUUAAGGGUA,0.89
13,GUUAACGGUCAUAGGCCAUGGACACUAGGAGCACCAUUUCGCUGCCAGUGUAGAAAUGAACAAAGAAAAUCUGGGCCAGGCAGGCAUCAAAAGAAAUAGUCUUGCGCUCAACCAGAAAGUCUGUAAUCAUUUUAAGGGUA,1.46
14,GUUAACGGUCAUAGGCCAUGGAGACUAGGAGCACCAUUUCGCUGCCAGUGAAGAAAUGAACAAAGAAGAUCUGGGCCAGGCAGGCAUCAAAAGAAAUAGUCUUGCGCUCAACCAGAAAGUCUGUAAUCAUUUUAAGGGUA,1.29
15,GUUAACGGUCAUAGGCCAUGGUAACUAGGAGCACCAUUUCGCUGCCAGUGAAGAAAUGAACAAAGAAAAUCUGGGCCAGGCAGGCAUCAAAAGAAAUAGUCUUGCGCUCAACCAGAAAGUCCGUAAUCAUUUUAAGGGUA,1.37
16,GUUAACGGUCAUAGGCCAUGGUAACUAGGAGCACCAUUUCGCUGCCAGUGAAGAAAUGAACAAAGAAAAUCUGGGCCAGGCAGGCAUCAAAAGAAAUAGUCUUGCGCUCAACCAGAAAGUCAGUAAUCAUUUUAAGGGUA,1.33
17,GUUAACGGUCAUAGGCCAUGGACACUAGGAGCACCAUUUCGCUGCCAGUGAAGAAAUGAACAAAGAAAAUCUGGGCCAGGCAGGCAUCAAAAGAAAUAGUCUUGCGCUCAACCAGAGAGUCUGUAAUCAUUUUAAGGGUA,2.19
18,GUUAACGGUCAUAGGCCAUGGUAACUAGGAGCACCAUUUCGCUGCCAGUGAAGAAAUGAACAAAGAAAAUCUGGGCCAGGCAGGCAUCAAAAGAAAUAGUCUUGCGCUCAACCAGAAAGUCUGUAACCAUUUUAAGGGUA,1.13
19,GUUAACGGUCAUAGGCCAUGGACACUAGGAGCACCAUUUCGCUGCCAGUGAAGAAAUGAACAAAGAAAAACUGGGCCAGGCAGGCAUCAAAAGAAAUAGUCUUGCGCUCAACCAGAAAGUCUGUAAUCAUUUUAAGGGUA,1.48
20,GUUAACGGUCAUAGGCCAUGGACACUAGGAGCACCAUUUCGCUGCCAGUGAAGAAAUGAACAAAGAAAAUCUGGGCCAGGCAGGCAUCAAAAGAAAUAGUCUUGCGCUCAACCUGAAAGUCUGUAAUCAUUUUAAGGGUA,0.01
21,GUUAACGGUCAUAGGCCAUGGAGUCUAGGAGCACCAUUUCGCUGCCAGUGAAGAAAUGAACAAAGAAAAUCUGGGCCAGGCAGGCAUCAAAAGAAAUAGUCUUGCGCUCAACCAGAAAGUCUGUAAUCAUUUUAAGGGUA,1.72

row,Variant,self-cleavage
1,GUUAACGGUCAUAGGCCAUGGAGACUAGGAGCACCAUUUCGCUGCCAGUGAAGUAAUGAACAAAGAAAAUCUGGGCCAGGCAGGCAUCAAAAGAAAUAGUCUUGCGCUCAACCAGAAAGUCUGUAAUCAUUUUAAGGGUA,1.5
2,GUUAACGGUCAUAGGCCAUGGAGACUAGGAGCACCAUUUCGCUGCCAGUGAAGAAAUGAACAGAGAAAAUCUGGGCCAGGCAGGCAUCAAAAGAAAUAGUCUUGCGCUCAACCAGAAAGUCUGUAAUCAUUUUAAGGGUA,1.01
3,GUUAACGGUCAUAGGCCAUGGAGACUAGGAGCACCAUUUCGCUGCCAGUGAAGAAGUGAACAAAGAAAAUCUGGGCCAGGCAGGCAUCAAAAGAAAUAGUCUUGCGCUCAACCAGAAAGUCUGUAAUCAUUUUAAGGGUA,1.18
4,GUUAACGGUCAUAGGCCAUGGAGACUAGGAGCACCAUUUCGCUGCCAGUGAAGAAAUGAACAAAGAAAAUCUGGGCCGGGCAGGCAUCAAAAGAAAUAGUCUUGCGCUCAACCAGAAAGUCUGUAAUCAUUUUAAGGGUA,0.29
5,GUUAACGGUCAUAGGCCAUGGAGACUAGGAGCACCAUUUCGCUGCCAGUGAAGAAAUGAACAAAGUAAAUCUGGGCCAGGCAGGCAUCAAAAGAAAUAGUCUUGCGCUCAACCAGAAAGUCUGUAAUCAUUUUAAGGGUA,1.43
6,GUUAACGGUCAUAGGCCAUGGAGACUAGGAGCACCAUUUCGCUGCCAGUGAAGAAAUGAACAAAGGAAAUCUGGGCCAGGCAGGCAUCAAAAGAAAUAGUCUUGCGCUCAACCAGAAAGUCUGUAAUCAUUUUAAGGGUA,1.02
7,GUUAACGGUCAUAGGCCAUGGUAACUAGGAGCACCAUUUCGCUGCCAGUGAAGAAAUGAACAAAGAAAAUCUGGGCCAGGCAGGCAUCAAAAGAAAUAGUCUUGCGCUCAACCAGAAAGUCUGUAAUCAUUUUAAGGGAA,1.63
8,GUUAACGGUCAUAGGCCAUGGAGACUAGGAGCACCAUUUCGCUGCCUGUGAAGAAAUGAACAAAGAAAAUCUGGGCCAGGCAGGCAUCAAAAGAAAUAGUCUUGCGCUCAACCAGAAAGUCUGUAAUCAUUUUAAGGGUA,0.77
9,GUUAACGGUCAUAGGCCAUGGAGACUAGGAGCACCAUUUCGCUGCCGGUGAAGAAAUGAACAAAGAAAAUCUGGGCCAGGCAGGCAUCAAAAGAAAUAGUCUUGCGCUCAACCAGAAAGUCUGUAAUCAUUUUAAGGGUA,0.86
10,GUUAACGGUCAUAGGCCAUGGAGACUAGGAGCACCUUUUCGCUGCCAGUGAAGAAAUGAACAAAGAAAAUCUGGGCCAGGCAGGCAUCAAAAGAAAUAGUCUUGCGCUCAACCAGAAAGUCUGUAAUCAUUUUAAGGGUA,1.74
11,GUUAACGGUCAUAGGCCAUGGAGACUAGGAGCACCAUUUCGCUGCCAGUGGAGAAAUGAACAAAGAAAAUCUGGGCCAGGCAGGCAUCAAAAGAAAUAGUCUUGCGCUCAACCAGAAAGUCUGUAAUCAUUUUAAGGGUA,1.33
12,GUUAACGGUCAUAGGCCAUGGACACUAGGAGCACCAUUUCGCUGCCAGUGAAGAAAUGUACAAAGAAAAUCUGGGCCAGGCAGGCAUCAAAAGAAAUAGUCUUGCGCUCAACCAGAAAGUCUGUAAUCAUUUUAAGGGUA,1.77
13,GUUAACGGUCAUAGGCCAUGGACACUAGGAGCACCAUUUCGCUGCCAGUGAAGAAAUGGACAAAGAAAAUCUGGGCCAGGCAGGCAUCAAAAGAAAUAGUCUUGCGCUCAACCAGAAAGUCUGUAAUCAUUUUAAGGGUA,0.63
14,GUUAACGGUCAUAGGCCAUGGAGACUAGGAGCACCAUUUCGCUGCCAGUGAUGAAAUGAACAAAGAAAAUCUGGGCCAGGCAGGCAUCAAAAGAAAUAGUCUUGCGCUCAACCAGAAAGUCUGUAAUCAUUUUAAGGGUA,1.69
15,GUUAACGGUCAUAGGCCAUGGAGACUAGGAGCACCAUUUCGCUGCCAGUGAGGAAAUGAACAAAGAAAAUCUGGGCCAGGCAGGCAUCAAAAGAAAUAGUCUUGCGCUCAACCAGAAAGUCUGUAAUCAUUUUAAGGGUA,1.13
16,GUUAACGGUCAUAGGCCAUGGACACUAGGAGCACCAUUUCGCUGCCAGUGAAGAAAUGAACAAAGAAAAUCUGGGCCAGGCAGGCAUCAAAAGAAAUAGUCUUGCGCUCAACCAGAAAGUCUGUAAUCAUUCUAAGGGUA,1.51
17,GUUAACGGUCAUAGGCCAUGGUAACUAGGAGCACCAUUUCGCUGCCAGUGAAGAAAUGAACAAAGAAAAUCUGGGCCAGGCAGGCAUCAAAAGAAAUAGUCUUGCGCUCAACCAGAAAGUCUGUAAUCAUUCUAAGGGUA,1.99
18,GUUAACGGUCAUAGGCCAUGGAGACUAGGAGCACCAUUUCGCUGCCAGUGAAGAAAUGAACAAAGAAAAUCUGGGCCAGGCAGGCAUCAAAAGAAAUAGUCUUGCGCUCAACCAGAAAGUCUGUAAUCAUUUUAAGGGUA,0.97
19,GUUAACGGUCAUAGGCCAUGGACACUAGGAGCACCAUUUCGCUGCCAGUGAAGAAAUGAACAAAGAAAAUCUGGGCCAGGCAGGCAUCAAAAGAAAUAGUCUUGCGCUCAACCAGAAAGUCUGUAAUCAUUUUAAGGGUA,0.9
20,GUUAACGGUCAUAGGCCAUGGAGACUAGGAGCACCAUUUCGCUGCCAGUGAAGAAAUGAACCAAGAAAAUCUGGGCCAGGCAGGCAUCAAAAGAAAUAGUCUUGCGCUCAACCAGAAAGUCUGUAAUCAUUUUAAGGGUA,0.98
